Experiment: yeast display, Sf9 membrane polyspecificity reagent, FACS + sequencing; frameworks hold sequencing errors
Summary of the method: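 After 36–48 hours of galactose induction, yeast (Saccharomyces cerevisiae BJ5465) displaying a synthetic nanobody library were stained at 4 °C for 1 hour with 10% biotinylated, detergent-solubilized Sf9 membrane reagent. Streptavidin microbeads enriched the stained cells before FACS sorting into low and high (top ~1%) gates on anti-HA and streptavidin fluorescence. Each clone's polyreactivity label reflects its gate of origin.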

Sequence | polyreactivity (PSR sort gate)
QVQLVESGGGLVQAGGSLRLSCAASGRIFPWYAMGWYRQAPGKERELVATISSSGRTNYADSVKGRFTISRDNAKNTVYLQLNSLQPEDTAVYFCAATLYHYWYADFDYWGQGTQVTVSS | high polyreactivity
QVQLVDSGGGLVQAGGSLRLSSPASGIIFTRYTMGCYSQEPGKERELVAAITTSGGRTYYADSVKGRFTISRDNAKNTVYLPMNSLKPEDTAVYYCDVSGHARYDYWGQGTQVTVSS | high polyreactivity
QVQLVESGGGLVQAGGSLRLSCAASGSTFDYNAMGWYRQAPGKERELVAAISSTGGSTYYADSVKGRFTISRDNAKNTVYLQMNSLKPEDTAVYFCARYYAIVSGYYDDGYWGQGTQVTVSS | high polyreactivity
QVQLVESGGCLVQAGGSLRLSCAASGRIFGVYAMGWYRQAPGKERELVAAISEGGGSTNYADSVKGRFTISRDNANNTVYLQMNSLKPEDTAVYYCAATSRTGVRRYYSWGQGTQVTVSS | low polyreactivity
QVQLVETGGGLVQAGGSLRLSCAASGSIFLVYAMGWNRPAPGKQRQVVAAIRWSGGSTYYADSVKGRFTISRDNAKKTVYLQMNSLKPEDTAVYYCNAGESYSVKGGPYDSDYWGQGTQVTVSS | low polyreactivity
QVQLVESGGGLVQAGGSLRLSCAASGRTFYYNTMGWYRQAPGKERELVATISRIGGSTYYADSVKGRFTISRDNAKNTVYLQMNSLKPEDTAVYYCAKGRSLNGRPPVVYWQLFYYWGQGTQVTVSS | high polyreactivity
QVQLVESGGGLVQAGGSLRLSCAASGIIFKYYAMGWYRPAPGKERELVAAITASGGRTYYADSVKGRFTISRDNAKNTVYLQMNSLKPEDTAVYYCAADSRSAYDYWGQGTQVTVSS | high polyreactivity
QVQLVESGGGLVQAGGSLRLSCAASGSIFDPYAMGWYRQAPGKERELVAAITASGSSTYYADSVKGRFTISRDNAKNTVYLQMYSLKPEDTAVYYCAADRANWEYLLSWLGYDYWGQGTQVTVSS | low polyreactivity
QVQLVESGGGLVQAGGSLRLSCAASGLIFKYNVMGWYRQAPGKERELVAAITKRGGSTYYADSVKGRFTISRDNEKNTVYLQMNSLKPEDTAVYYCAARPVNTVRPFDYWGQGTQVTVSS | high polyreactivity
QVQLVESGGGLVQAGGSLRLSCAASGSIFVWYAMGWYRQAPGKERELVAAISSSGDNTYYADSVKGRFTISRDNAKNTVYLQMNSLKPEDTAVYYCAAKSYWGQGTQVTVSS | high polyreactivity
QVQLVESGGCLVQAGGSLRLSCAASGITFGRNTMGWSRQAPGKERELVAAIDSGGNTYADSVKGRFTISRDNAKNTVYLQMNSLKPEDTAVYYCAVDGGEFSSYGYWVQGTQVTVSS | low polyreactivity
PVQLVESGGGLVQAGGSLRLICAASALTFPPYSMGWYRQAPAKERELVAAISRNAGNTYYADSVKGRFTISRDTAKNTVYLQMNSLKPEDTAVYYCAAKRGTQGMYYWGQGTQVTVSS | high polyreactivity
QVQLQESGGGLVQAGGSLRLSCAASGYISLAQTIGWYRQAPGKEREFVASIALGSSTYYTDSVKGSFTISRDNANTPVYLQMNSLKPEDTAVYYCAARVGASYAHDYWGQGTQVTVSC | low polyreactivity
QVQLVESGGGLVQAGGSLRLSSAASGFIFDYSAMGWYRQAPGKERELVAAITRDGGGTYYADSVKGRFTISRDNANNTVYLQMNRLKPEDTAVYYCAARRAVRLYYWGQGTQVTVSA | high polyreactivity
QVQLVESGGGLVQAGGSLRLSCAASGFTFGENAMGWYRQAPGKDRELVAAITSGDGTSYADSVKGRFTISRDNAKNTVYLQMNSLKPEDTAVYSCAADVNYYQHRLYYWGLGTQVTVSS | low polyreactivity
QVQLVESGGGLVQAGGSLRLSCAASGRTFPYYVMGWYRQAPGKERELVAAINSGGRTNYADSVKGRFTISRDNAKNTVYLQMNSLKPEETAVYYCTKRGHPARLGYYYWGQGTQVTGSS | low polyreactivity
QVQLVESGGGLVQAGGSLRLSCAASGRNFEKNAMGWSRQAPGKERELVASIDFRGGRTYADSVKGRFTISRDNAKNTVYLQMISLKPEDTAVYYCAKRQVGRKYVRYEYDSWGHGTQVTVSS | low polyreactivity
QVQLVESGGGLVQAGGSLRLSCAASGRIFYTYAMGWYRQAPGKERELVAAITYRGGSTYYADSVKGRFTISRDNAKNTVYLQMNSLKPEDTAVYYCATQLWDRYGFGYWGQGTQVTVSS | high polyreactivity
QVQQQESGGGLVQAGVSLRLSWAASGTIFQLTVMGRYRQAPGKEREVVASIDYGGNTNYADSVKGRFTISRDNAKNTVYRQMNSLKPEDTAVYYCAASSDSSTTHPYWGQGTHVTVSS | low polyreactivity
QVQLVESGGGLVQAGGSLRLSCAASANTFPTNAMGWYRQAPGKEMELVATISLGAGSTHYADSVKVRFTISRDNAKNTVYLQMNSLTPEDTAVYYCAARSRRWYDYDYWGQGTQVTVSS | low polyreactivity
QVQLVESGGGLVQAGGSLRLSCAASGFIIYFYAMGWYRQAPGKERELVAAINYPGDSTYYADSVKGRFTISRDNAKNTVYLQMNSLKPEDTAVYYCNKVLYNKWPYVTLSAFPTVGYWGQGTQVTVSS | high polyreactivity
QVQLVESGGGLVQAGGSLRLSCAASGFTFAGYAMGWYRQAPGKDRELVAAISWSGGRTYYADSVKGRFTISRDNAKNTVYLQMNSLKPEDTAVYYCAKLTLSSRWYYIYDYWGQGTQVTVSS | high polyreactivity

Sequence | polyreactivity (PSR sort gate)
QVQLVESGGGLVKAGGSLRLSCAASGSTFRYYAMGWYRQAPGKERELVAGITTGGGRTYYADSVKGRFTISRDNAKNTVYLQMNSLKPEDTAVYYCAADRYSHYWYRISYDYWGQGTQVTVSS | high polyreactivity
QVQLVESGGGLDQEGGSLRLSCAASGNIFSSYLMGWYRQAPGKEREVVAAISSRGGSTYYADSVKGRFTISRDNAKNSVYLQMNSLKPEDTAVYYCAARTGRYYRRYDYWGQGTQVTLSS | high polyreactivity
QEQLQESGGGLVQAGCSLRLSCAANGYIFSVEYMGCYCLAPGKEREFVATINYDTSTYYADSVKGRFTISRDNAKNTVYLQMNSLKPEDTAVYYCAAYFYAYRSPGYWGLGTQVTVSS | high polyreactivity
QVQLVESGGGLVQAGGSLRLSCSASGYIFSSNTMGWYRQAPGTERELVAGISGRTGRTYYADSVKGRFTISRDNAKNTVYLQMNSLKPEDTAVYYCARVPYQGYPRRRLSGYYYWGQGTQVTVSS | high polyreactivity
QVQLVESGGRLVQAGGSLRLSCAASGRTFYHNAMGWYRQAPGKERELVAVITWSGGSTYYADSVKGRFTISRDNAKNTVYLQMNSLKPEDTAVYYCATRRYGYERILYNYWGQGTQVTVSS | high polyreactivity
QVQLVESGGGLVQAGGSLRLSCAASGRIFPWYAMGWYRQAPGKERELVAAITSGGGSTSYADSVKGRFTISRDNAKNTVYLQMNRLKPEDTAVYYCAARRWISSHSYKYGYWGQGTQVTVSS | high polyreactivity
QVQLVESGAGLVKAGGSLRLSCAASGIIFGNYAMGLYRQAPGKEREFVAAISGSGDSTYYADSVKGRFTISRDNAKNTVYLQMNSLKPEVTAVYYCAADWTLVYYHEDYWGQGTQVTVSS | high polyreactivity
QVQLEESGRGLVQAGGSLRLSCAASGFTFSLYAMGWYRQAPGKERELVAAISSRSGSTFYADSVKGRFTISRDNAKNTVYLQMNSLKPEDTAVYYCAARRDWLGGYWGQGTQVTVSS | high polyreactivity
QVQLVESGGGLVQAGGSLRLSCAASGSIFRRYAMGWYRQAPGKERELVATITSSVCRTYYADSVKARFTISRDTAKNTVYLQMNSLKPEETAVYFCAVYVGLWGAGGKGDYWGQGTQVTVSS | low polyreactivity
QVQLVESGGGLVQAGGSLRLSCAASGFTFQFYAMGWYRQAPGKERELVARISESGSRTYYADSVKGRFTISRDNAKNTVYLQMNSLKPEDTAVYYCAADNPYLGRKFDYWGQGTQVTVSS | high polyreactivity
QVQLVESVGGLVQAGGSLRLSCAASGGTFKTNAMGWYIQAPGKERELVAAITGSGTSTYYADSVKGRFTISRDNAKNTVYLQMNSLKPEDTAVYYCAADKLYQPGIGDDYWGQGNQVTVSS | low polyreactivity
QVQLVESGGGLVQAGGSLRLSCAASGSTFIPNAMGWYRQAPGKERELVATIRSGGGRTYYADSVKGRFKISRDNAKNTVYLQMNSLKPEDTAVYYCAAGYYLSVQVYRFDYWGQGTQVTVSS | high polyreactivity
QVQLVESGGGLVQAGGSHRLSFAASGGIFRGYALGWNRQAPGKERELGATIRSSGRTNYADSVKGRFTIARDNAKNTVYLQMNCLKPDDTAVYYCNKRRWWQYDRWSDWVLGGDDYWGQGTQLTVSS | low polyreactivity
QFQLVESGGGLVQAGGSLRLSCAASGSTFYANAMGLYRQAPGKERELVAAISYSGGSTYYADSVKGRFTISRDNAKNTVYLQMNSLKPEDTAVYYCAATNGKKTPKVYYWGQGTQVTVSS | low polyreactivity
QVQLVESGGGLVQAGGSLRLSCAASGFIFYYYAMGWYRQAPGKERELVAAISSGGSTYYADSVKGRFTISRDNAKNTVYLQMNSLKPEDTAVYYCNARGFYRGYTYYYWGQGTQVTVSS | high polyreactivity
QVQLVESGGGLVQAGGSLRLSCAASGFTFDYNAMGWYRQAPGKEREFDAAISTGGSTKYADSVKGRFTISRDNAKNTVYLQMNSLKPEDTAVYYCNKQTTDRGFYDWKWSGFDYWGQGTQVTVSS | low polyreactivity
QVQLVESGGGLVQAGGSLRLSCAASGITFYYYAMGWYRQAPGKERELVAAINSGGITNYADSVKGRFTISRDNAKNTVYLQMNSLKPEDTAVYYCAASSGFRYRYGYWGQGTQVTVSS | high polyreactivity
QVQLVESGGGLVQAGGSLRLSCAASGFIFYPYAMGWYRQAPGKERELVAVITSGGRTYYADSVKGRFTISRDNAKNTVYLQMYSLKPEDTAVYYCNADTFQWWDIADVYVIVKYGYWGQGTQVTVSS | low polyreactivity
QDQLVESGGGLVQAGGSLRLSCAASGRTFYQYAMGWYRQAPGKERELVAAITFRGGSTNYADSVKGRFTISRDNAKNTVYLQMNSLKPEDTAVYYCAATVYGTVYKGRSQYEYGYWGQGTQVTVSS | high polyreactivity
QVQLVESGGGIVQAGGSLRLSCAASGSTFATYAMGWYRQAHGKERELVAAITRSGGITYYADSVKGRFTISRDNAKKTVYLHMKSLKPEDTAVYYCNARTRSPTFSGRYYWGQATQVTVSS | high polyreactivity
QVQLVESGGGLFQAGGSLRLSCAASGFNFDSNVMGWYRQAPGKERELVAAITGDDTTYYADSVKGRFTISRDNAKNTVYLQMNSLKPEDTAVYYCAADETESLEYTAYDMYYWGQGTQVTVSS | low polyreactivity

Reference: the nanobody polyreactivity screen of Harvey et al. (2022)
